Experimental data reported in US20250277050A1 (MEDICAL COLLEGE OF WISCONSIN, published 2025).
Positions count from the first letter of the chain named. Each block holds one binder with its values, some of them ahead of it.

Assays:
[1] = molecular target: T1, human CD30 expressed on the cell surface (human, UniProt P28908 19-595); assay: flow cytometry on CD30+ and CD30- cell lines
T1 construct: whole, on cells; also called huCD30; cell-surface expressed CD30
T1 sequence (looked up): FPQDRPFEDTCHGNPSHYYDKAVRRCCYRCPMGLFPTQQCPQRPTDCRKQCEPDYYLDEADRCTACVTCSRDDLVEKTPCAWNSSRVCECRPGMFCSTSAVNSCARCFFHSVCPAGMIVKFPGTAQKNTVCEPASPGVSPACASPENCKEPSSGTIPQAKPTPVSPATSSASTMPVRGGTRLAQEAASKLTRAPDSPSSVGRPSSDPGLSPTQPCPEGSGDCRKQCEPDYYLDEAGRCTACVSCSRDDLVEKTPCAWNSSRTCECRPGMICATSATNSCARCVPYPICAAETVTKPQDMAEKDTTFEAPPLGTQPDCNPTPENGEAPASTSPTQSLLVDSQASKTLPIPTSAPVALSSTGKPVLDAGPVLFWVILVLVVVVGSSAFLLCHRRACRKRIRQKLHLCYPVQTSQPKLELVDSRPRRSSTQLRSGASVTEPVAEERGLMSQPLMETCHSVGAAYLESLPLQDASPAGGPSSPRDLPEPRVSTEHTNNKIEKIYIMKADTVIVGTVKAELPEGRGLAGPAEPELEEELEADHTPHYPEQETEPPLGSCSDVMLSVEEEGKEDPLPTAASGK
Method: Flow cytometry analysis was preformed using purified antibody on CD30+ cell lines (SU-DHL-1, RPMI6666, […]) and a CD30− cell line (OCIAML2). A commercially available α-huCD30 antibody (clone BY88) and an isotype control were also tested.
We have employed hybridoma technology to generate novel murine anti-human CD30 mAbs. Mice were immunized and boosted with purified human GST-tagged CD30. Mouse spleen cells were then harvested and fused with myeloma cells to generate antibody secreting hybridoma. Hybridoma supernatants were screened for specificity to purified CD30 protein by ELISA, and GST specific clones were eliminated. […] Specific binding of our mAbs to cell-surface expressed CD30 was assessed by flow cytometry (FIG. 1) using 293T cells (CD30−), lentiviral transduced 293T cells expressing huCD30, and K562 cells which are naturally CD30+. The 293T (CD30−), 293T LV huCD30 (transduced with human CD30), SU-DHL-1 (lymphoma), RPMI.6666 (lymphoma) or K562 (CML) cell lines were incubated with each antibody in the form of unpurified hybridoma supernatant, and then incubated with an Alexa Fluor 647-labeled anti-mouse IgG antibody. Cell-associated fluorescence was determined by FACS.

[2] = molecular target: T1, human CD30 expressed on the cell surface; assay: flow cytometry, purified antibody on cells with CD30 surface expression

- binding result [2]: binds
B3: 15B8 (antibody, V domains shown)
VH: QVQLEQSGTELVKPGASVKLSCKASGYTFTSYWMHWVKQRPGQGLEWIGNINPSNGGTNYNEKFKSKATLTVDKSSSTAYMQLSSLTSEDSAIYYCARRNNYYASSPFAYWGQGTLVSVSA
VL: DIVMTQTPASLSASVGETVTITCRASGNIHNYLAWYQQKQGKSPQLLVYNAKTLADGVPSRFSGSGSGTQYSLKINSLQPEDFGSYYCQHFWSTPFTFGSGTKLEIK
notes: Murine anti-human CD30 monoclonal antibody from a hybridoma, detected with anti-mouse IgG; also called monoclonal antibody 15B8

- binding result [1]: binds
B5: 13H1 (antibody, V domains shown)
VH: QVQLQQSGTELVKPGASVKLSCKASGHTFTSYWMHWVKQRPGQGLEWIGNINPSNGGTNYNEKFKSKATLTVDKSSSTAYMQLSSLTSEDSAVYYCARRGYYGSSSYWSFDVWGTGTTVTVSS
VL: DIVMTQTPKSMSMSVGERVTLSCKASENVGTYVSWYQQKPEQSPKVLIYGASNRFTGVPDRFTGSGSATDFTLTISSVQTEDLADYHCGQSYSYPLTFGAGTKLELK
notes: Murine anti-human CD30 monoclonal antibody from a hybridoma, detected with anti-mouse IgG; also called monoclonal antibody 13H1

More lines, now with the values behind:

B1: 10C2 (antibody, V domains shown)
VH: QVQLEQSGPVLVKPGASVKMSCKASGYTFTDYYMNWVKQSHGKSLEWIGVINPYNGGTSYNQKFKGKATLTVDKSSSTACMELNCLTSEDSAVYYCTLGAYWGQGTSVTVSS
VL: not shown
notes: Murine anti-human CD30 monoclonal antibody from a hybridoma, detected with anti-mouse IgG; also called monoclonal antibody 10C2; anti-CD30 mAb 10C2
- binding result [1]: binds

B2: 8D10 (antibody, V domains shown)
VH: QVQLQESGTELVKPGASVKLSCKASGYTFTSYWMHWMKQRPGQGLEWIGNINPSNGGTNYNEKFKNKATLTVDKSSSTAYMQLSSLTSEDSAVYYCARRDYYYGSSYGFDVWGTGTTVTVSS
VL: DIVMTQSPASQSASLGESVTITCLASQTIGTWLAWYQQKPGKSPQFLIYAATSLADGVPSRFSGSGSGTKFSFKISSLQAEDFVSYYCQQLYSTPFTFGGGTKLEIK
notes: Murine anti-human CD30 monoclonal antibody from a hybridoma, detected with anti-mouse IgG; also called monoclonal antibody 8D10; anti-CD30 mAb 8D10
- binding result [1]: binds

B4: 12B1 (antibody, V domains shown)
VH: EVKLEESGTELVKPGASVKLSCKASGYTFTSYWMHWVKQRPGQGLEWIGNINPTNGGTNYNEKFKSKATLTVDKSSRTAYMQLSSLTSGDSAVYYCARRDFITTSGFAYWGQGTLVTVSA
VL: B3 VL with P8T, A13T, I29L, N31S, A34T, N76D, S93T
notes: Murine anti-human CD30 monoclonal antibody from a hybridoma, detected with anti-mouse IgG; also called monoclonal antibody 12B1
- binding result [1]: binds
